In patent US20130115589A1 (UNIVERSITY OF TOKYO, published 2013):

Target: T1, wild-type glycoprotein B (gB) of HSV-1(F) (Herpes simplex virus 1 (HSV-1(F)), UniProt P06436 30-903)
T1 construct: whole, on cells; also called wild-type gB
Assay: flow cytometry on infected 293T cells, PE-labeled anti-human IgG secondary antibody

B1: NMHC-IIArod-Ig (fusion protein of the C terminal fragment of NMHC-IIA and Ig) (Fc fusion)
chain: LAQAKENEKKLKSMEAEMIQLQEELAAAERAKRQAQQERDELADEIANSSGKGALALEEKRRLEARIAQLEEELEEEQGNTELINDRLKKANLQIDQINTDLNLERSHAQKNENARQQLERQNKELKVKLQEMEGTVKSKYKASITALEAKIAQLEEQLDNETKERQAACKQVRRTEKKLKDVLLQVDDERRNAEQYKDQADKASTRLKQLKRQLEEAEEEAQRANASRRKLQRELEDATETADAMNREVSSLKNKLRRGDLPFVVPRRMARKGAGDGSDEEVDGKADGAEAKPAE
notes: also called soluble C-terminal fragment of NMHC-IIA; soluble form of NMHC-IIA
B1: binds.
